Laboratory results taken from US20170304566A1 (Ablynx, published 2017).

Target: F protein (fusion glycoprotein) of hRSV, Memphis 37 strain (human respiratory syncytial virus, …)
Experiment: cell-based or functional assay

B1: SEQ ID NO: 71 (RSV434), trivalent polypeptide consisting of three anti-hRSV immunoglobulin single variable domains (VHH)
chain: DVQLVESGGGLVQAGGSLSISCAASGGSLSNYVLGWFRQAPGKEREFVAAINWRGDITIGPPNVEGRFTISRDNAKNTGYLQMNSLAPDDTAVYYCGAGTPLNPGAYIYDWSYDYWGRGTQVTVSSGGGGSGGGGSGGGGSEVQLVESGGGLVQAGGSLSISCAASGGSLSNYVLGWFRQAPGKEREFVAAINWRGDITIGPPNVEGRFTISRDNAKNTGYLQMNSLAPDDTAVYYCGAGTPLNPGAYIYDWSYDYWGRGTQVTVSSGGGGSGGGGSGGGGSEVQLVESGGGLVQAGGSLSISCAASGGSLSNYVLGWFRQAPGKEREFVAAINWRGDITIGPPNVEGRFTISRDNAKNTGYLQMNSLAPDDTAVYYCGAGTPLNPGAYIYDWSYDYWGRGTQVTVSS
sensitivity in in vitro neutralization relative to RSV-B 18537: ~6 fold
